Measured values: the supplement of paper PMC7125110
± gives the standard error. Variants at the floor of the assay were thinned out.

B1: glmS ribozyme (parent)
chain: AUAAAAGCGCCAGAACUACAGAAAUGUAGUUGACGAGGAGGAGGUUUAUCGAAUUUUCGGCGGAUGCCUCCAAA

Experiments:
Settings in all cases: with glucosamine-6-phosphate
glucosamine-6-phosphate [1] = variants of: B1; test: self-cleavage kobs at 160 uM GlcN6P; higher = faster cleavage; RNA array
In short: (§1)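 Ribozyme variants carrying barcodes were transcribed in situ on sequenced MiSeq chips by E. coli RNA polymerase and tracked at 37 °C with a hybridised Cy3 probe. They were exposed to 40 μM to 10 mM glucosamine-6-phosphate in HEPES/KCl/Mg(OAc)2 buffer. kobs came from exponential decay fits of normalised per-tile medians, and kcat and KM from weighted Michaelis–Menten fits.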

glucosamine-6-phosphate [2] = variants of: B1; test: self-cleavage kobs at 640 uM GlcN6P; higher = faster cleavage; RNA array
In short: as §1

glucosamine-6-phosphate [3] = variants of: B1; test: self-cleavage kobs at 2500 uM GlcN6P; higher = faster cleavage; RNA array
In short: as §1

glucosamine-6-phosphate [4] = variants of: B1; test: self-cleavage kobs at 10000 uM GlcN6P; higher = faster cleavage; RNA array
In short: as §1

Variant	self-cleavage kobs at 160 uM GlcN6P (glucosamine-6-phosphate [1]) [s⁻¹]	self-cleavage kobs at 640 uM GlcN6P (glucosamine-6-phosphate [2]) [s⁻¹]	self-cleavage kobs at 2500 uM GlcN6P (glucosamine-6-phosphate [3]) [s⁻¹]	self-cleavage kobs at 10000 uM GlcN6P (glucosamine-6-phosphate [4]) [s⁻¹]
A15C G29U C67A	9.38e-05 ± 3.4e-05	0.000156 ± 2.9e-05	0.000163 ± 4.2e-05	
G29C G35A G59U A64G	< 1e-05			
G29A A39U G43U	< 1e-05			
U30A A48C C67G	< 1e-05			
G29U A39G G59U C67U	< 1e-05	< 1e-05		
C16U C34G	< 1e-05			< 1e-05
U30A U56G	0.000202 ± 6.6e-05	0.00118 ± 0.00024	0.0019 ± 0.00059	
A15C A39U A42C C67G	< 1e-05	< 1e-05	< 1e-05	
A15C G32C A48C	< 1e-05			
G29C A33C C61A	< 1e-05			
A15C G32C G38U	< 1e-05			
A15G C16G U55A	0.000205 ± 6e-05	0.000405 ± 0.00011	0.00143 ± 0.0004	
U30A U56C G60U A64C	< 1e-05	< 1e-05		
G29U U45C U56C	< 1e-05			
G29U G43C U47A G63A	< 1e-05	< 1e-05	< 1e-05	
G29U A36G A52G	< 1e-05		< 1e-05	
A14U G21A U56G	0.00134 ± 0.00038	0.0043 ± 0.0012	0.00645 ± 0.0026	
C16G A48G C68A C71G	5.61e-05 ± 2.2e-05	0.000118 ± 3.8e-05		
A15G U46G G66A C68U	6.94e-05 ± 1.7e-05	0.000307 ± 0.00014	0.00078 ± 0.00029	
A15C U30A C67A	0.000277 ± 6.8e-05	0.000357 ± 8.3e-05	0.0013 ± 0.0005	
A15U G32U G37A G62U	< 1e-05			
G29A G35C	< 1e-05	< 1e-05	< 1e-05	< 1e-05
A15G A33C A64U	< 1e-05		< 1e-05	
A15G G29U C34U	< 1e-05			
A15C A36G G38U	< 1e-05		< 1e-05	
A15G U31C U45C U49A	< 1e-05	< 1e-05	< 1e-05	

Variant	self-cleavage kobs at 160 uM GlcN6P (glucosamine-6-phosphate [1]) [s⁻¹]	self-cleavage kobs at 640 uM GlcN6P (glucosamine-6-phosphate [2]) [s⁻¹]	self-cleavage kobs at 2500 uM GlcN6P (glucosamine-6-phosphate [3]) [s⁻¹]	self-cleavage kobs at 10000 uM GlcN6P (glucosamine-6-phosphate [4]) [s⁻¹]
G29C C61U C71U	< 1e-05			
C16U A52G C71G	0.000103 ± 3.1e-05	5.85e-05 ± 1.3e-05	0.000175 ± 3.2e-05	
A15C G40A U45A C70G	< 1e-05	< 1e-05		
A14U U49C U57G C70G	9.25e-05 ± 2.7e-05	6.79e-05 ± 2.7e-05	6.68e-05 ± 2.2e-05	
C16U C50U U69G	7.48e-05 ± 1.8e-05	7.53e-05 ± 1.8e-05	7.21e-05 ± 1.6e-05	
U30C A36G U57C	< 1e-05	< 1e-05	< 1e-05	
C16U G40C U47G	6.77e-05 ± 2.5e-05	0.000145 ± 2e-05	0.000389 ± 9.2e-05	
C16U A42G A48U G66U	< 1e-05	< 1e-05		
A15G G38A G60U C70G	< 1e-05		< 1e-05	
C16G C67G	0.000347 ± 0.00013	9.56e-05 ± 1.7e-05	8.7e-05 ± 1.4e-05	6.6e-05 ± 7e-06
G29U G60U	< 1e-05	< 1e-05	< 1e-05	< 1e-05
A15G C16A	0.000119 ± 4.3e-05	0.000305 ± 7.7e-05	0.000524 ± 0.00013	
A14U U47C U49A	< 1e-05			
A15G C34U G63A	< 1e-05		< 1e-05	
C16U G40A U46C	0.000137 ± 3.1e-05		0.000815 ± 0.00018	
G29A A53U C67A	7.84e-05 ± 1.8e-05	0.00017 ± 4e-05	0.000241 ± 7.1e-05	
C16G A52C	< 1e-05		< 1e-05	
A15C A48C	< 1e-05			4.99e-05 ± 1.2e-05
A15G C16A G60U	< 1e-05	< 1e-05	< 1e-05	
A14G U54C G60C A64G C70G	< 1e-05	< 1e-05		
A14G U45G A53U	0.000618 ± 0.00016	0.00262 ± 0.00057	0.00337 ± 0.0012	
C16G A42G G60C C70U	< 1e-05		< 1e-05	
C16U G37A G40C G43A	< 1e-05	< 1e-05	< 1e-05	< 1e-05
A15C C16A C67U	4.39e-05 ± 2.1e-05	0.000115 ± 2.9e-05	0.000111 ± 4e-05	
G29A A36G C58A	< 1e-05	< 1e-05	< 1e-05	< 1e-05
G29C C34G U55C	< 1e-05			
